Molecular target: Growth arrest specific 6 (Gas6), soluble, His-tagged (Homo sapiens, UniProt Q14393)
Assay: flow cytometry on cells

Sequence of Growth arrest specific 6 (Gas6), soluble, His-tagged (Q14393 31-678): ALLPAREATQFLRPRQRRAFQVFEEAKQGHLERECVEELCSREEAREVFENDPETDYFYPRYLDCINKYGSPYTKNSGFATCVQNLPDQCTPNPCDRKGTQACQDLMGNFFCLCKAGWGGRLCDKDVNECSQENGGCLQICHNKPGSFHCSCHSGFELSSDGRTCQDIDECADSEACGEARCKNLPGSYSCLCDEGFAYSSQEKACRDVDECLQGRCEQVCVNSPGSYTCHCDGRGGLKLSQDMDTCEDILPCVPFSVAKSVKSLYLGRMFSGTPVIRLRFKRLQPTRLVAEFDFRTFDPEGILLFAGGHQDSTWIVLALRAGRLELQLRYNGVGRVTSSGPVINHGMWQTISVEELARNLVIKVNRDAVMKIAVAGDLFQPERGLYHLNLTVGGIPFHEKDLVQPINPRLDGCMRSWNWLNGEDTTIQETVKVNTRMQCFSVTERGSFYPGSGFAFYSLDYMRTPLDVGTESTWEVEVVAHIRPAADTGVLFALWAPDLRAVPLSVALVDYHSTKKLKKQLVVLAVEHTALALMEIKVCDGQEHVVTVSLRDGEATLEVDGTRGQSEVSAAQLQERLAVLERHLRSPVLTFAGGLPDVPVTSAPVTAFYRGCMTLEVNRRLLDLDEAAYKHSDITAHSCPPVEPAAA

- Kd: 130 nM
B1: anti-Gas6 scFv identified by μSCALE from a naïve yeast-displayed scFv library (scFv, V domains shown)
VH: EVQLVESGGGLVQPGGSLRLSCAASGFNISYGGSYIHWVRQAPGKGLEWVASIYPGGGYTYYADSVKGRFTISADTSKNTAYLQMNSLRAEDTAVYYCARTVRGSKKPYFSGWAMDYWGQGTLVTVSS
VL: DIQMTQSPSSLSASVGDRVTITCRASQYGGYGGVAWYQQKPGKAPKLLIYYASSLYSGVPSRFSGSRSGTDFTLTISSLQPEDFATYYCQQWWGYPITFGQGTKVEIK
